Experimental data as given in patent US20250207119A1.

Columns and labels:
Test in all cases: cell-based or functional assay
[1] = molecular target: ADAM9 from R & D Systems (UniProt Q13443)
[2] = molecular target: ADAM17 from R & D Systems (UniProt P78536)
[3] = molecular target: Meprin from R & D Systems
[4] = molecular target: MMP 2 (UniProt P08253)
[5] = molecular target: Human ADAM10 from R & D Systems (human) (UniProt O14672)
[6] = molecular target: MMP 9 (UniProt P14780)
[7] = molecular target: MMP 12 (UniProt P39900)
[8] = molecular target: MMP 3 (UniProt P08254)
[9] = molecular target: MMP 14 (UniProt P50281)

Human ADAM10 from R & D Systems (human), sequence (O14672 214-672 limits assumed): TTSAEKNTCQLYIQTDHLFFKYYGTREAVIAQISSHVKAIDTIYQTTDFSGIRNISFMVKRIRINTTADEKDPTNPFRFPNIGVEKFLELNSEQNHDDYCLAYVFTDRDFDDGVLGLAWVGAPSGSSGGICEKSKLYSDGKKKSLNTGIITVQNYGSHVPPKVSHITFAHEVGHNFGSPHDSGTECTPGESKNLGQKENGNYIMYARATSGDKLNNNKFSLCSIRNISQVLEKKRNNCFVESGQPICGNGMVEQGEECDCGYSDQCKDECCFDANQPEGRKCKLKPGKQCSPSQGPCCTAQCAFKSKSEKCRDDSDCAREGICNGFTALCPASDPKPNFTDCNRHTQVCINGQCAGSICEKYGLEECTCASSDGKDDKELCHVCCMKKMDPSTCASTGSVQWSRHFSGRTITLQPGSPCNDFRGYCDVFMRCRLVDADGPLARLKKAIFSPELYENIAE
MMP 3, sequence (P08254 18-477 limits assumed): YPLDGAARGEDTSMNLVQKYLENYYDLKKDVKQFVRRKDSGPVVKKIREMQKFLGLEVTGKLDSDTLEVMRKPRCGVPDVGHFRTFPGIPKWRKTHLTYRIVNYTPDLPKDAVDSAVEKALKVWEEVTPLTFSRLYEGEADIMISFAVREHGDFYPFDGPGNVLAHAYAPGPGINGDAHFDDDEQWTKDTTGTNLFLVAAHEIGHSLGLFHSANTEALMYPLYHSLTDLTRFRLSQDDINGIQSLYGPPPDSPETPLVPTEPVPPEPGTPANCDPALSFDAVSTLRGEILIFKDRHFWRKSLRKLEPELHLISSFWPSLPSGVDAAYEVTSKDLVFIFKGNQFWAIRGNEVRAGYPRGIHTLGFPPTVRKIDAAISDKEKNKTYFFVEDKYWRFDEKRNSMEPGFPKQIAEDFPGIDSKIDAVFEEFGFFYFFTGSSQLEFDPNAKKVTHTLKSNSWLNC
ADAM9 from R & D Systems, sequence (Q13443 29-697 limits assumed): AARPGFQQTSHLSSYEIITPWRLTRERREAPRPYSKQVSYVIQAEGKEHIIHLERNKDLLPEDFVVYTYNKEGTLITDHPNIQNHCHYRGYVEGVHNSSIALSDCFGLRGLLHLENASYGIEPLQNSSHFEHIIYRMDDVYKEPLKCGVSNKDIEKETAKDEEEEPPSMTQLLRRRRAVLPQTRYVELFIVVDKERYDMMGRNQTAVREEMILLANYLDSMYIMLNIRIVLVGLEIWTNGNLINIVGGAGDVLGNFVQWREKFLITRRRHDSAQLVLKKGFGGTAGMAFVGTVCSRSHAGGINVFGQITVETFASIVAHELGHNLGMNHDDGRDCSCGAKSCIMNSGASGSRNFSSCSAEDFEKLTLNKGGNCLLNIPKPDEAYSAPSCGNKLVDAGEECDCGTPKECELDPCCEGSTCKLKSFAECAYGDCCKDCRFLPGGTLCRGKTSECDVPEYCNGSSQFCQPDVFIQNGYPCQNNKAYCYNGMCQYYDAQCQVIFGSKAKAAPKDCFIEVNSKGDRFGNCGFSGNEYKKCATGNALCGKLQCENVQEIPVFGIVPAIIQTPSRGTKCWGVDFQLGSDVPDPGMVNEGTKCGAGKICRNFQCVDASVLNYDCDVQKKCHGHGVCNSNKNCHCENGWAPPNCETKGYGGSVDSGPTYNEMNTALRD
MMP 2, sequence (P08253 30-660 limits assumed): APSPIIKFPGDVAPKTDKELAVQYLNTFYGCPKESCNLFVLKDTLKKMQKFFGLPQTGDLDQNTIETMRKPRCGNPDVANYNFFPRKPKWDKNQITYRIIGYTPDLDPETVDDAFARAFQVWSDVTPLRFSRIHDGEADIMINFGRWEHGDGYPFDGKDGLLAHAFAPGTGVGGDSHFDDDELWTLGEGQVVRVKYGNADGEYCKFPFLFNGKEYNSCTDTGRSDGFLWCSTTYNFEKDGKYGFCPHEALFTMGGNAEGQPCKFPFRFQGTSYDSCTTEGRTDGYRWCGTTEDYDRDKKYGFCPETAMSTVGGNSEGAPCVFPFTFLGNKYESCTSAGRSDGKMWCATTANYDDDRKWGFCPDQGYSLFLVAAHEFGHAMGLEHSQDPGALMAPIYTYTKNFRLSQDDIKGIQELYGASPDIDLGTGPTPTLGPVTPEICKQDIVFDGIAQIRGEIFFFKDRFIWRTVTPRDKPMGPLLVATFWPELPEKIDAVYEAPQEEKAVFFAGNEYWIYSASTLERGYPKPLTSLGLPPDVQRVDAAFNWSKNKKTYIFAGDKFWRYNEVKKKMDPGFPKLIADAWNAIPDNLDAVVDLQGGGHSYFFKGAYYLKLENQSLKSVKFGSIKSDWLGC
MMP 9, sequence (P14780 20-707 limits assumed): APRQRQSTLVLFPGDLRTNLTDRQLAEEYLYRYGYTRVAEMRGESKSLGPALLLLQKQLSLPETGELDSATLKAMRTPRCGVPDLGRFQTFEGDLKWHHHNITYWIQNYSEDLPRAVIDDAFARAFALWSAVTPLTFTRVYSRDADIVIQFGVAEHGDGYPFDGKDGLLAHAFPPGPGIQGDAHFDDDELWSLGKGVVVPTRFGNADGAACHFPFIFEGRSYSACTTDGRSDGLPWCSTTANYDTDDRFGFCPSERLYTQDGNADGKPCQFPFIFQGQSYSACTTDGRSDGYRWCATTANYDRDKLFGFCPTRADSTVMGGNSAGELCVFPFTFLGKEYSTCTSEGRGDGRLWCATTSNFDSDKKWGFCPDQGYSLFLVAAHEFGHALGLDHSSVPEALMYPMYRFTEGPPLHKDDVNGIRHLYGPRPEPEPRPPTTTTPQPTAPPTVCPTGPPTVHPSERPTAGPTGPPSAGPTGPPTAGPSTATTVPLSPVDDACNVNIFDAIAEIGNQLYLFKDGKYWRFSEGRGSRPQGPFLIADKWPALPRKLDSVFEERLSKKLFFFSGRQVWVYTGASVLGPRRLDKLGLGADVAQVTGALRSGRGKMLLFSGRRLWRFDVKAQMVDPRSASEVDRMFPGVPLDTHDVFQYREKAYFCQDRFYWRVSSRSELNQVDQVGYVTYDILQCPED
ADAM17 from R & D Systems, sequence (P78536 215-671 limits assumed): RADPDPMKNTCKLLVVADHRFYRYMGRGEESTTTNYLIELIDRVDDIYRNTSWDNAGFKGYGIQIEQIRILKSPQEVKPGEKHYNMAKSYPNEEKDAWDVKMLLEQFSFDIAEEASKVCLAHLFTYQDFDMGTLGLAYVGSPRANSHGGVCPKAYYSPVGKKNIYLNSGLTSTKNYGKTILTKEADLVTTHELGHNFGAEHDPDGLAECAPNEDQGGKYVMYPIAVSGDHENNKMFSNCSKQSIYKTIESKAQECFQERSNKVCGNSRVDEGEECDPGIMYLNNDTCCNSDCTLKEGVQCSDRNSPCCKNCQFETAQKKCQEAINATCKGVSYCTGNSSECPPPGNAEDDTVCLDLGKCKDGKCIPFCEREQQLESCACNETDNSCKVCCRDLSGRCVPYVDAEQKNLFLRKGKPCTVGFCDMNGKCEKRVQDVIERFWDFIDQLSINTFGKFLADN
MMP 12, sequence (P39900 17-470 limits assumed): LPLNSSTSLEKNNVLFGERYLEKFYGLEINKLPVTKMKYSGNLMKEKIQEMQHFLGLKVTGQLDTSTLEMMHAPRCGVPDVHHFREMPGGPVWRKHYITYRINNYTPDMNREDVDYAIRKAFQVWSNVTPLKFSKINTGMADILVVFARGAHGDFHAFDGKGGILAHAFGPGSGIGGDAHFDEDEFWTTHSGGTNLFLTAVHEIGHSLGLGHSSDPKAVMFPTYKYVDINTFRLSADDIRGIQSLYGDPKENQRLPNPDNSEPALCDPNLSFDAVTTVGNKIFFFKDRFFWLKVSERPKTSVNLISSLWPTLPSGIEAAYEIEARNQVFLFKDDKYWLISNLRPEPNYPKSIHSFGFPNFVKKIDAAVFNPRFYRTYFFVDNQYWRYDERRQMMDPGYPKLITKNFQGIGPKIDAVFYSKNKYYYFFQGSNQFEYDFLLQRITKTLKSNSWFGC

percent inhibition of ADAM9 activity [1]: 0 % at 8 µM | percent inhibition of ADAM17 activity [2]: 28 % at 8 µM | IC50 (nM), inhibition of meprin cleavage of the fluorescent substrate PEPDAB022 [3]: 185 nM | percent inhibition of MMP activity (PEPDAB008 substrate) [4]: 0 % at 8 µM | IC50 (nM), inhibition of ADAM10 cleavage of the fluorescent substrate PEPDAB064 [5]: 17 nM | percent inhibition of MMP activity (PEPDAB008 substrate) [6]: 0 % at 8 µM | percent inhibition of MMP activity (PEPDAB008 substrate) [7]: 0 % at 8 µM | percent inhibition of MMP activity (PEPDAB008 substrate) [8]: 0 % at 8 µM | percent inhibition of MMP activity (PEPDAB008 substrate) [9]: 0 % at 8 µM
Substance: SEQ ID NO: 1 (human wild type ADAM10 prodomain peptide, amino acids 23-211 of NP_001101.1)
